Source: patent CN115785273A (DONGGUAN PENGZHI BIOTECHNOLOGY CO LTD, dated 2023)

B1: Anti-HPG I 8C20单克隆抗体 (antibody, V domains shown)
VH: QVQLQQPGAELVRPGASVKLSCKASDYTFTSYWMNWVKQRPEQGLEWIGRIDPYDSETHYNQKFKDKAILTVDKSSSTAYMQLSSLTSEDSAVYYCARFSMVVAVYAMDYWGQGTSVTVSS
VL: DIQMTQSPASLSASVGETVTITCRASGNIHNYLAWFQQKQGKSPQILVYYAKTLADGVPSRFSGSGSGTQFSLKINSLQPEDFGSYYCQHFWSTPWTFGGGTKLEIK

Target: T1, PG I蛋白(fitzgerald，30R-AP038) (UniProt P0DJD8 16-388)
T1 construct: Commercial antigen; Pepsinogen I is a group of isozymogens (PGA3/PGA4/PGA5); also called 胃蛋白酶原I; HPG I
Experiment: BLI, AMC sensors, antibody captured at 10 μg/mL, PG I protein in serial dilution in PBST

T1 sequence (P0DJD8 16-388): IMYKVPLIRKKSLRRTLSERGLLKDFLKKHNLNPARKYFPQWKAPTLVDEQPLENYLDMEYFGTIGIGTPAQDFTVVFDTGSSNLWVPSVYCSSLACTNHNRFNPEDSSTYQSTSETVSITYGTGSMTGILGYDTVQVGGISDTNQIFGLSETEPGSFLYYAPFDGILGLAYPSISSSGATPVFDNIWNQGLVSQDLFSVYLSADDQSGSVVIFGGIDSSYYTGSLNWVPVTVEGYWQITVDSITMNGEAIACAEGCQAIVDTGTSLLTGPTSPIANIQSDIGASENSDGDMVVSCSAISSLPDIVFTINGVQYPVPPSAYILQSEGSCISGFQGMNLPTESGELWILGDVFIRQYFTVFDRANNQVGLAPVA

Row | Kd [nM] | koff [s⁻¹] | kon [M⁻¹ s⁻¹] | Molecule
1 | 0.297 | 0.000273 | 919000 | 对照抗体 (antibody)
2 | 0.0309 | 2.85e-05 | 921000 | B1
